Experimental data from patent publication US11957763B2, “Sulfamide linkers for use in bioconjugates” (SYNAFFIX B.V., priority 2016, dated 2024).

How the values were obtained:
Format in all cases: biochemical
Trastuzumab = experiment: Trimming of trastuzumab by EndoSH; conditions: 0.1 w/w % EndoSH, 37° C., after 1 hour, 25 mM Tris buffer pH 8, MS analysis
Protocol: Trastuzumab (obtained from Epirus biopharma (Utrecht, The Netherlands)) in 25 mM Tris buffer pH 8), (14 mg/mL) was trimmed using a concentration of either 0.1 or 1 w/w % EndoSH. The reactions, 350 μg trastuzumab (25 μL) and the appropriate amount of EndoSH, were stirred at 37° C. and analyzed by MS analysis overtime, 1 to 3 hours. Samples were subjected to Fabricator treatment prior to analysis.
(§1) Prior to mass spectral analysis, IgGs were either treated with DTT, which allows analysis of both light and heavy chain, or treated with Fabricator™ (commercially available from Genovis, Lund, Sweden), which allows analysis of the Fc/2 fragment. For analysis of both light and heavy chain, a solution of 20 μg (modified) IgG was incubated for 5 minutes at 37° C. with 100 mM DTT in a total volume of 4 μL. If present, azide-functionalities are reduced to amines under these conditions. For analysis of the Fc/2 fragment, a solution of 20 μg (modified) IgG was incubated for 1 hour at 37° C. with Fabricator™ (1.25 U/μL) in phosphate-buffered saline (PBS) pH 6.6 in a total volume of 10 μL. After reduction or Fabricator-digestion the samples were washed trice with milliQ using an Amicon Ultra-0.5, Ultracel-10 Membrane (Millipore) resulting in a final sample volume of approximately 40 μL. Next, the samples were analyzed by electrospray ionization time-of-flight (ESI-TOF) on a JEOL AccuTOF. […]

[1] = tested on: Trastuzumab having high-mannose glycans; experiment: Trimming of high-mannose trastuzumab by fusion protein EndoSH; conditions: 1 w/w % EndoSH, 37° C., after 3 hours, 25 mM Tris buffer pH 8, MS analysis
Protocol: Trastuzumab having high-mannose glycans (obtained via transient expression in CHO K1 cells in the presence of kifunensine performed by Evitria (Zurich, Switzerland)) (14 mg/mL) in 25 mM Tris buffer pH 8, was trimmed using a concentration of either 0.1 or 1 w/w % EndoSH. The reactions, 350 μg high-mannose trastuzumab (25 μL) and the appropriate amount of EndoSH, were stirred at 37° C. and analyzed by MS analysis over time, 1-3 hours. Samples were subjected to Fabricator treatment prior to analysis.
as §1, with “After reduction or Fabricator-digestion the samples were washed trice with milliQ using an Amicon Ultra-0.5, Ultracel-10 Membrane (Millipore) resulting in a final sample volume of approximately 40 μL.” left out

glycans on glycoproteins = experiment: pH at which the endoglycosidase activity operates
Description: Trimming of glycoproteins is known in the art, from e.g. WO 2007/133855 or WO 2014/065661.

B1: EndoSH: fusion enzyme of endoglycosidases EndoS and EndoH connected via a -(G4S)3-(His)6-(G4S)3- linker, SEQ ID NO: 1 (protein)
chain: MPSIDSLHYLSENSKKEFKEELSKAGQESQKVKEILAKAQQADKQAQELAKMKIPEKIPMKPLHGPLYGGYFRTWHDKTSDPTEKDKVNSMGELPKEVDLAFIFHDWTKDYSLFWKELATKHVPKLNKQGTRVIRTIPWRFLAGGDNSGIAEDTSKYPNTPEGNKALAKAIVDEYVYKYNLDGLDVDVEHDSIPKVDKKEDTAGVERSIQVFEEIGKLIGPKGVDKSRLFIMDSTYMADKNPLIERGAPYINLLLVQVYGSQGEKGGWEPVSNRPEKTMEERWQGYSKYIRPEQYMIGFSFYEENAQEGNLWYDINSRKDEDKANGINTDITGTRAERYARWQPKTGGVKGGIFSYAIDRDGVAHQPKKYAKQKEFKDATDNIFHSDYSVSKALKTVMLKDKSYDLIDEKDFPDKALREAVMAQVGTRKGDLERFNGTLRLDNPAIQSLEGLNKFKKLAQLDLIGLSRITKLDRSVLPANMKPGKDTLETVLETYKKDNKEEPATIPPVSLKVSGLTGLKELDLSGFDRETLAGLDAATLTSLEKVDISGNKLDLAPGTENRQIFDTMLSTISNHVGSNEQTVKFDKQKPTGHYPDTYGKTSLRLPVANEKVDLQSQLLFGTVTNQGTLINSEADYKAYQNHKIAGRSFVDSNYHYNNFKVSYENYTVKVTDSTLGTTTDKTLATDKEETYKVDFFSPADKTKAVHTAKVIVGDEKTMMVNLAEGATVIGGSADPVNARKVFDGQLGSETDNISLGWDSKQSIIFKLKEDGLIKHWRFFNDSARNPETTNKPIQEASLQIFNIKDYNLDNLLENPNKFDDEKYWITVDTYSAQGERATAFSNTLNNITSKYWRVVFDTKGDRYSSPVVPELQILGYPLPNADTIMKTVTTAKELSQQKDKFSQKMLDELKIKEMALETSLNSKIFDVTAINANAGVLKDCIEKRQLLKKGGGGSGGGGSGGGGSHHHHHHEFGGGGSGGGGSGGGGSAPAPVKQGPTSVAYVEVNNNSMLNVGKYTLADGGGNAFDVAVIFAANINYDTGTKTAYLHFNENVQRVLDNAVTQIRPLQQQGIKVLLSVLGNHQGAGFANFPSQQAASAFAKQLSDAVAKYGLDGVDFDDEYAEYGNNGTAQPNDSSFVHLVTALRANMPDKIISLYNIGPAASRLSYGGVDVSDKFDYAWNPYYGTWQVPGIALPKAQLSPAAVEIGRTSRSTVADLARRTVDEGYGVYLTYNLDGGDRTADVSAFTRELYGSEAVRTP
modifications: Fusion protein EndoSH
- conversion to the trimmed product, trimmed to the core GlcNAc sugar residue (Trastuzumab): Full conversions
- conversion to the trimmed product, trimmed to the core GlcNAc sugar residue [1]: Full conversions
- pH at which both activities (EndoS and EndoH) of the fusion enzyme function smoothly (glycans on glycoproteins): 7-8
